Data set [1] concerns the target T1, SNV nucleocapsid protein N wild type (SNVN) (Sin Nombre hantavirus, UniProt Q89462 1-428).
T1 sequence: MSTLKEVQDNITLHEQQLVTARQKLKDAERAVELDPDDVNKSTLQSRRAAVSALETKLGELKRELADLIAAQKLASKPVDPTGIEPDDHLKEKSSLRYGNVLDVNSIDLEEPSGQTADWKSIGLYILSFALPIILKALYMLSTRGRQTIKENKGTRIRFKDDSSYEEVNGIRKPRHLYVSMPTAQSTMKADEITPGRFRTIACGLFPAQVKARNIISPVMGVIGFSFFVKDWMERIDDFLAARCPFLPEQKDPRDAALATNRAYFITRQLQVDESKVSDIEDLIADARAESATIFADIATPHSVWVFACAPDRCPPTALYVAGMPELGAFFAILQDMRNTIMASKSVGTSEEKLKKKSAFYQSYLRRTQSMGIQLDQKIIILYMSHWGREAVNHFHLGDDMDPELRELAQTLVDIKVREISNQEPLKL
The data set can be described thus: filter binding.

For data set [2], the target named is T1, SNV nucleocapsid protein N wild type …. Nature of the data set: BLI. A general note: BLI is a label-free optical method that tracks binding on a fibre tip over time.
Data set [3] has the same target. The data set can be described thus: BLI. This is another data set of the same source.
Data set [4] shares this target. The data set can be described thus: filter binding. This is another data set of the same source.

On to GAUAUGUGAG (ssRNA, 5' mRNA cap (enzymatic, Cell Script)) [capped decameric RNA], for which the Kd in data set [1] is 120 ± 0.6 nM; in data set [2], 106 ± 5.7 nM; in data set [3] it was 107.8 ± 0.7 nM.

As to GAUAUGUGAG (ssRNA) [uncapped decameric RNA], in data set [2], the affinity, expressed as Kd, was 477 ± 6.8 nM. For the same molecule, the binding signal in data set [4] is ~4 fold lower affinity than capped.

As a reminder, the Kd is a measure of binding affinity in units of concentration.

(Values after article PMC4315616.)
